Legend:
[1] = biological target: T1, human plexin A1 protein sema domain (from glutamic acid at position 28 to serine at position 514) tagged at … (human, UniProt Q9UIW2 28-514); experiment: SPR, Biacore T200; KD against parent antibody hPANLB2-3_342
T1 construct: also called human plexin A1 sema domain
T1 sequence: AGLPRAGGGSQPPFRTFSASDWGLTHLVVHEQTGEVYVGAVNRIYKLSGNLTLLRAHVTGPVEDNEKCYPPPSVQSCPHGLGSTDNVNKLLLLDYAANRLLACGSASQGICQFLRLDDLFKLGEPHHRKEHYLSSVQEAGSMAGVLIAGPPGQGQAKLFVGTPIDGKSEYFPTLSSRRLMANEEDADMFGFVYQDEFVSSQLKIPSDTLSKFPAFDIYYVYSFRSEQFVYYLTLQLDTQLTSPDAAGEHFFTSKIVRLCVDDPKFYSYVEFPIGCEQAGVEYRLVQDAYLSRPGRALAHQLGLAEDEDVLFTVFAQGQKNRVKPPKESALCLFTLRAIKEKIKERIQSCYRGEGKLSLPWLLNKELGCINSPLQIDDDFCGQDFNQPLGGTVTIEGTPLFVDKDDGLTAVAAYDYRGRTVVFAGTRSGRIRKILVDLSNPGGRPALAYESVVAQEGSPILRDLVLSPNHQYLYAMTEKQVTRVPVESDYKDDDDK
Protocol: (§1) Each antibody obtained in the paragraph (10-1) was evaluated for its binding activity against the antigen by surface plasmon resonance (SPR) analysis.
(§2) In the SPR analysis, the antibody was analyzed using Biacore T200 (GE Healthcare Japan Corp.). The anti-human plexin A1 antibody was immobilized onto the surface of Sensor Chip CM4 using Recombinant Protein A/G (Thermo Fisher Scientific Inc.) and Amine Coupling Kit (GE Healthcare Japan Corp.). The antigen used was a human plexin A1 protein sema domain (from glutamic acid at position 28 to serine at position 514) tagged at the C terminus of the protein with FLAG tag. The antigen was prepared as follows: an expression vector carrying a cDNA corresponding to the human plexin A1 sema domain was transferred to FreeStyle 293 cells. After culture, the obtained culture solution was passed through an anti-FLAG-M2 antibody-immobilized affinity column. A fraction eluted with the FALG peptide was purified by gel filtration. The obtained antigen was serially diluted with 20 mM ACES, 150 mM NaCl, 0.05% polysorbate 20, and 1.2 mM CaCl₂ (pH 7.4) and added to the sensor chip at a flow rate of 30 μL/min. In this assay system, the dissociation constant (KD) between the human plexin A1 protein and the anti-human plexin A1 antibody was calculated using data analysis software (BIA T200 Evaluation software ver. 2).

[2] = biological target: T1, human plexin A1 protein sema domain …; experiment: SPR, Biacore T200; antibody held by Protein A/G on CM4 chip, sema domain as analyte
Protocol: as §1, §2

- Relative KD improvement [1]: 19 fold
- Kd [2]: 1.82 nM
B1: PLR2H342#009 (antibody, human IgG1, lambda, V domains shown)
VH: EVQLVQSGAEVKKPGASVKVSCKASGYTFTSYGISWVRQAPGQGLEWMGWISAYNGNTNYAQKLQGRVTMTTDTSTSTAYMELRSLRSDDTAVYYCARHAGYYYGMDVWGKGTMVTVSS
VL: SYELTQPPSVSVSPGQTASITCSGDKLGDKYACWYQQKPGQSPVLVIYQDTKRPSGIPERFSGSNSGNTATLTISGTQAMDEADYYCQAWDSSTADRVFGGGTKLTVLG
notes: IgG from the 342H-NL library
